Measured values taken from paper PMC6908506, “Development of Foot-and-Mouth Disease Virus-Neutralizing Monoclonal Antibodies Derived From Plasmablasts of Infected Cattle and Their Germline Gene Usage” (Frontiers in Immunology, 2019).
Positions count from the first letter of the chain named.

B1: B59 (antibody, V domains shown)
VH: QVQLRESGPSLVKPSQTLSLTCTVSGFSLSDYAVGWVRQAPGKALEWVGGISSGGTTCSKPALKSRLSITRDSSKSQVSLFVTSMTPEDTATYYCAKYFRHDYDVGCSYIMEAVDAWGQGLLVTVSS
VL: QAVLTQPSSVSGSLGQRVSITCSGSSSNVGRGNYVNWFQQIPGSAPRTLIYGATSRASGVPNRFSGSRSGNTATLTISSLQAEDEADYFCAVWDDNIRNAVFGSGTTLILL
B2: F136 (antibody, V domains shown)
VH: QVQLRESGPSLVKPSQTLSLTCTVSGFSLSSKGVHWIRQAPGKALEWLGSTWSFGSAFNPALKSRLSITKDNSKSQVALSLSTVTPEDTATYYCARELYNGGSTWDAINGYNEERYYFDAWGQGLLVTVSS
VL: QAVLTQPSSVSGSLGQSVSITCSGSSSNVGYGNYVSWFQQIPGSAPRMLIYGATSRASGVPYRFSGSRSGNTATLTINSLQAEDEADYFCASPDSSSSGYFAVFGSGTTLTVL
B3: E53 (antibody, V domains shown)
VH: QVQLRESGPSLVKPSQTLSLTCTVSGFSLSSYAVDWVRQAPGKALECLGGISRDGDISYNPALKSRLSITKDDSKSQVSLSLSSVTSEDTATYYCAKATDGGYFRSTYGCQGFTVNTYVDIWGQGFLVTVSS
VL: QAVLTQPSSLSGSLGQRVSITCSGSSGNIGTRDVSWYQQIPGSGLRTIIYGNSSRPSGVPDRFSGSRSGNTATLRIRSLQPEDEADYFCGSADYSSEIAVFGSGTTLTVL
B4: E32 (antibody, V domains shown)
VH: QVQLRESGPSLVKPSQTLSLTCTVSGFSLSNYALNWVRQAPGKALECLGGIGPSGHTDYNPALKSRLIITKDNSKNQVSLSVSSVTPEDTATYICARDSGIYGTSGWGCIGGFDDNYIDAWGHGLLVTVSS
VL: QAVLTQPSSVSGSLGQRVSITCSGSSNNIGAHGVGWYQQIPGSGLRTIIYNNSKRPSGVPDRFSGSKSGNTATLTISSLQAGDEADYFCATSDYSTRSSAFGSGTTLTVL
B5: A7 (antibody, V domains shown)
VH: QVQLRESGPSLVKPSQTLSLTCTVSGFSLSSYAVNWVRQAPGKALECLGGISSSGSTGYKPALKSRLSITKDNSKSQVSLSVSNVTPEDTATYYCVKSYWDYNDYGCCSGGNGVGFDAWGQGLLVTVSS
VL: QAVLTQPSSVSGSLGQRVSITCSGSSNNIGSYAVGWYQQVPGSGLRTIIYSSSSRPSGVPDRFSGSKSGNTATLTISSLQAEDEADYFCATADYSRSTAVFGSGTILTVL
B6: E10 (antibody, V domains shown)
VH: QVQLRESGPSLVKPSQTLSLTCTVSGFSLSSNGVVWVRQAPGKALEWVGCSRGEGSTFYNQALRSRLSITKDNSKSQVSLSVSSVTPEDTATYYCTKVYNGGCGRRGYDAAAYVDAWGQGLLVTVSS
VL: B5 VL with S25R, S31G, Y32N, A33G, S51G, R96S, S97G, I106T
B7: E9 (antibody, V domains shown)
VH: QVQLRESGPSLVKPSQTLSLTCTVSGFSLSNYAVSWVRQAPGKALECLGSISSDGNTGYNPALKSRLSITKDNSKSQVSLSVSSATPEDTATYYCTKCHYPGGCCGYWNDDHVDAWGQGLLVTVSS
VL: B5 VL with S19T, N27S, S31M, A33D, S51G, S77M, A90T, R96S, A99V, I106T
B8: B81 (antibody, V domains shown)
VH: QVQLRESGPSLVKPSQTLSLTCTVSGFSLSNYAIGWVRQAPGKAPEWVVDTDVDGGTAYNPALKSRLSITKDNSKSQVSLSLNGVTPEDTATYYCVKLSRESAWLFFHVDAWGQGLLITISS
VL: QAVLTQPSSVSGSLGQSVSITCSGSSGNIGRYGVDWYQQVPGSGLRTIIYASSRRPSGVPDRFSGSKSGNTATLTISSLQAEDEADYFCAGGDENIIVPLFGAGTTLTVL
notes: also called HRP-B81
B9: E28 (antibody, V domains shown)
VH: QVQLRESGPSLVKPSQTLSLTCTISGFSLSDYAVAWVRQAPGKAPEWVGGISTGGRTNYNPTLESRLSITKDNAKSQISLTVSSVTPEDTATYLCLRLACYDHEGYRCFGYDLNWGVDAWGQGLLVSVSS
VL: QAVLTQPSSVSGSLGQRVSITCSGSSTNIGTYYVGWYQQVPGSGLRTIIYGTTNRPSGVPDRFSGSKSSGNTATLTISSLQAEDEADYFCVTYDSTITPSAVFGSGTTLTVL
B10: B54 (antibody, V domains shown)
VH: QVQLRESGPSLVKPSQTLSLTCTVSGFSLSSNAVVRVRQAPGKTLEWLGGICSGGATSFNPALKSRLSITKDNSKSQVSLSVSSVTPEDTATYYCMRVGSCFGCGDRCGYGYPYTYVDVWGQGLLVTVSP
VL: QAVLTQPSSVSGSLGQRVSITCSGSSSNVGTGNYVSWFQQIPGSAPRTLIYGATSRASGVPDRFSGSRSGNTATLTISSLQAEDEADYFCASYQIGNTAVFGSGTTLTVL
B11: 62 (antibody, V domains shown)
VH: QVQLRESGPSLVKPSQTLSLTCTVSGFSLSDKDVGWVRQAPGTALEWLAVIYNAGSTSYNPTLESRLSITKDNSKSQVSLSLSSVTTEDTATYYCALGNYWAWGQGLLVTVSS
VL: QAALTQPSSVSGSLGQRVSITCSGSSSNIGRGNYVNWFQQIPGSAPRTLIYGATNRASGVPDRFSGSRSGDTATLTISPLQAEDEADYFCAAYDINGNAVFGSGTTLTVL
B12: 60 (antibody, V domains shown)
VH: QVQLRESGPSLVKPSQTLSLTCTISGFSLSDATVGWVRQASGKALEWLGAIWPSGSTGYNLGLKSRLTITKDNSKTQVFLSLNSLTPEDTATYHCTGGGIGFIWGQGLLVTVSP
VL: QAVLTQPSSVSGSLGQRVSITCSGSPNNVGLGNFVSWFQQIPGSAPRSLIYGATSRVSGVPDRFSGSRSMNTATLTISSLQAEDEADYFCASYERNNTGVFGSGTTLTVL
B13: B64 (antibody, V domains shown)
VH: QVQLRESGPSLVKPSQTLSLTCTVSGFSLSNYDVAWVRQPPGKALECLGGVSISGRTDYNPALKSRLSITKDNSKNQVSLSLSSVTTEDTATYYCAKFFGDYGYDYYGCGYGAGDHYVDAWGQGLLVAVSS
VL: QAVLTQPSSVSGSLGQRVSITCSGSSSNVGNGYVSWYQLIPGSAPRTLIYGDTSRASGVPDRFSGSRSGNTATLTISSLQAEDEADYFCASAEGSSSNAGFGSGTTLIVL
B14: E11 (antibody, V domains shown)
VH: QVQLRESGPSLVKPSQTLSLTCTVSGFSLNSYAVTWVRQAPGKALECLGSIGSRGGTGYNQALKSRLSITKNNSKSQVSLSVRSVTPEDTATYYCVKESGSGYWDDACWGFGVGDDYVDTWGHGLLVTVST
VL: QAVLTQPSSVSGSLGQRVSITCSGSSSNVGRGNYVSWFQQLPGAAPRTLIYAATSRASGVPDRFSGSRSGNTATLTISSLQAEEEAYYFCAVYDTSSKAAVFGSGTTLTVL
B15: B51 (antibody, V domains shown)
VH: QVQLRESGPSLVKPSQTLSLTCTVSGFSLSSYGVIWVRQAPGKALECLGQITTGGITGYNPALKSRLSITKDNSEGQVSLSLSSVTTEDTATYYCVKEHDNYGDFSGGCLHAAYVDTWGQGLLVTVSS
VL: QAVLTQPSSVSGSLGQRVSITCSGSSSNIGLYAVGWYQQVPGSGLRSIIYSSRSRPSGVPDRFSGSKSGNTATLTISSLQAEDEADYFCVAYDSSSDSAIFGSGTTLTVL

Key:
[1] = target: T1, FMDV O/Mya/98 146S antigen (Foot-and-mouth disease virus serotype …, UniProt G8JKC2, strain); assay: ELISA; details: both partners purified
T1 construct: also called purified virus antigen; copies: + + +

[2] = target: T1, FMDV O/Mya/98 146S antigen; assay: cell-based or functional assay

| Binder | binding result [1] | virus neutralizing test on BHK-21 cells, IC50 [2] [µg/mL] |
| --- | --- | --- |
| B1 | binds |  |
| B2 |  | 1.67 |
| B3 | binds |  |
| B4 | binds |  |
| B5 | binds |  |
| B6 | binds |  |
| B7 | binds |  |
| B8 | binds |  |
| B9 | binds |  |
| B10 | binds |  |
| B11 | binds |  |
| B12 | binds |  |
| B13 | binds |  |
| B14 | binds |  |
| B15 | binds |  |
